“Also recorded” adds a separate entry of the source. Like-named read-outs stand apart in the source and are kept apart here. No end group written: not given here.
T1: FcγRIIA (Homo sapiens, UniProt P12318)
T1 sequence (P12318 34-317): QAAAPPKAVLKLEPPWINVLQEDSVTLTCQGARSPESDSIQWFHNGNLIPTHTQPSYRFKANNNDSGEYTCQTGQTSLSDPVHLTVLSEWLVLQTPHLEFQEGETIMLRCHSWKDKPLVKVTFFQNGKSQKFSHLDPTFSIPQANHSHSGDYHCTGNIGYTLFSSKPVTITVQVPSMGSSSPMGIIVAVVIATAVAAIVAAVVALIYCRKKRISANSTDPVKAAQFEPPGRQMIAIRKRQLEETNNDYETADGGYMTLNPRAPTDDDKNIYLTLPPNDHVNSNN

T2: human Fc gamma receptor IIA (FcγRIIA) (human, UniProt P12318 34-317)
T2 construct: whole, on cells; also called FcgRIIA; CD32a
T2 sequence (looked up): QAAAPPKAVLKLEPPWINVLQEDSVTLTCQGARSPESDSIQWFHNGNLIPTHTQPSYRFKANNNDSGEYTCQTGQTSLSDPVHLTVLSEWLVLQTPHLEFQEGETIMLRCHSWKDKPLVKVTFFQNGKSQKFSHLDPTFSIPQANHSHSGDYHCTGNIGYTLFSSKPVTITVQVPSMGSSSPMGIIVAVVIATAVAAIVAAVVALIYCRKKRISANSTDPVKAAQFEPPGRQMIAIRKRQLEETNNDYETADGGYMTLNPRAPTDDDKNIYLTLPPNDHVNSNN


What was measured:
human platelets [1] = assay type: cell-based; conditions: for Inhibition of platelet aggregation of HIT-antibody: concentration giving inhibition; for inhibition of HIT serum induced aggregation: 40 nM, human platelets, HIT serum and heparin; for EC50: HRU5 relative to the parental scFv, read-out: activity (effective concentration)
Experimental: Platelet aggregation assays were performed by mixing samples at 1200 rpm, 37° C. for up to 25 min in an aggregometer (Chrono-log Aggro/Link™). The reaction mixture (500 μl) consisted of 300 μl of healthy donor PRP, HIT patient serum or purified Total HIT IgG (up to 14 μM, adjusted according to different donor platelets), heparin (0.5 IU/ml) and various concentrations of HRU5-HRU7. The degree of aggregation was determined by the increase in light transmittance. Platelet aggregation levels over 20% were considered positive.
With antibody/IC-induced platelet aggregation, time delay (time lapse) is a more sensitive measure of platelet aggregability compared with the extent of platelet aggregation as different antibodies invariably cause the same maximum extent of platelet aggregation after variable time delays or time lapses (as illustrated in FIG. 2B). Various concentrations of parental scFv, HRU5 or HRU6 were used. Plots were fitted to non-linear regression analysis (sigmoidal dose-response curves) (FIG. 2C). […] Here, the degree of inhibition of platelet aggregation was determined at various concentrations and analysed as shown in FIG. 2D.
Inhibition of platelet aggregation of HIT-antibody by HRU5 ˜3.5 mg/ml.

FcγRIIA = target: T1, FcγRIIA; assay: Binding of the linker peptide alone; conditions: source not stated
[2] = target: T2, human Fc gamma receptor IIA (FcγRIIA); assay: platelet-based fluorescent assay (flow cytometry), one-site specific binding fit
Experimental: (§1) Platelet-rich plasma (PRP) was obtained from whole blood after centrifugation at 200×g for 10 min. Washing/Suspension buffer (PBS, 0.5% BSA, 25 mM EDTA, pH 6.8) was used for platelet preparation throughout the experiment. 4 μl of PRP was incubated with various concentrations of fluorescently labelled HRU molecules for 30 min. Cells were washed once with 500 μl of buffer (PBS, 0.5% BSA, 25 mM EDTA, pH 6.8), suspended in 200 μl of PBS and analysed by flow cytometry (Cantoll, BD Biosciences).

human platelets [3] = assay: Platelet binding, flow cytometry (platelet-based fluorescent assay); conditions: for Kd: binding to human platelets, non-linear regression, one-site specific binding (FIG. 1D)
Experimental: FIG. 1D provides graphs of platelet-based fluorescent assay measurements with KD and R^2 values for the parental scFv, HRU5 and HRU6. Non-linear regression analysis (one-site specific binding) was used to determine KD and R^2 values. GMF, geometric mean fluorescence.
as §1

[4] = system: FcγRIIA/hPF4 double transgenic mice; assay: Animal model of HIT (KKO plus heparin), lung thrombi by fluorescence; assay type: in vivo, mouse; conditions: 3.49×10^−11 moles per gram (~1 microgram/g)
Experimental: The mice used in these experiments were described in Reilly et al., “Heparin-induced thrombocytopenia/thrombosis in a transgenic mouse model requires human platelet factor 4 and platelet activation through FcγRIIA” Blood. 2001; 98(8):2442-2447. Animals were injected intravenously (iv) with HIT-like MoAb KKO. Heparin was injected intraperitoneally at 1 U/g following IgG injection. In some experiments, HRU molecules were also injected via the iv route. For in vivo platelet labelling anti-CD42c-Dylight649 (Emfret) was injected iv at 1 μg/g. Platelet counts were measured before treatment and at 1 h, 3 h and 5 h following treatment. Lungs were harvested 4 h after treatment, fixed in formalin and scanned for fluorescence in an IVIS Lumina Spectrum CT Spectrometer (PerkinElmer).
Mouse platelets were labeled in vivo with anti CD42c-Dylight649 antibody. The animals were treated with the HIT-like monoclonal antibody KKO plus heparin in the absence (vehicle) or presence of 3.49×10^−11 moles per gram (˜1 microgram/g) of parental scFv or HRU5. Fixed lungs from these mice were scanned with an IVIS Lumina Spectrum CT. There was clear accumulation of florescence in lungs treated with KKO plus vehicle, indicative of the presence of platelet rich thrombi. […] This finding is consistent with the findings of the in vitro experiments and microfluidics studies. […]

platelets = assay: Serotonin release assay (platelet activation); assay type: cell-based, human; conditions: 0.1 IU/ml heparin; induced by KKO (FIG. 4) / HIT serum
From the text: FIG. 4 is a graph of the serotonin release assay. Serotonin release was induced by a HIT-like monoclonal antibody (KKO) and was inhibited by parental scFv, HRU5, HRU6 or HRU7. Heparin was used at therapeutic low concentrations (L, 0.1 U) and at inhibitory high concentration (H,100 U). Dotted lines denote 0% and 20% CPMA. Values over 20% are considered positive. CPMA, counts per minute.
SRA is the gold standard to confirm the presence of platelet-activating HIT antibodies. Platelets from a healthy donor were labelled with Hydroxytryptamine Binoxalate, 5-[2-^14C]-(Serotonin) (^14C-5HT) (1.5 μl/ml) and mixed with heparin (0.1 (low dose) or 100 IU/ml (high dose)) in the presence of HIT serum. The protein of interest was then added to the reaction and incubated at room temperature for 1 h. After centrifugation the supernatant was collected and the ^14C-serotonin released was measured in a scintillation counter. The percentage of ^14C-serotonin released was calculated by determining the proportion in the supernatant relative to the remaining ^14C-serotonin in platelets. A test result is defined as positive if more than 20% serotonin release is detected with a therapeutic heparin concentration of (0.1 IU/ml) but not with a high dose of heparin (100 IU/ml).

thrombin = target: T3, thrombin (Homo sapiens, UniProt P00734); assay: Thrombin time assay in plasma; assay type: biochemical; conditions: undiluted plasma, increasing concentrations, in words
T3 construct: purchased Diagnostica STAGO S.A.A
Experimental: FIG. 3B is a graph of a Thrombin Time Delay assay for HRU6 and HRU7. Increasing concentrations of HRU molecules were incubated with undiluted plasma prepared from ACD anticoagulated blood. Clotting time of control plasma (untreated plasma) is shown corresponding to 0 concentration (closed circle). […] Clotting time is shown in sec.
The STA-Thrombin kit (Diagnostica STAGO S.A.A.) was used for the determination of the thrombin time by a haemostasis analyser. Plasma was prepared from ACD anticoagulated normal blood by centrifugation for 10 min at 2500×g. 500 μl of undiluted plasma, in the absence and presence of different inhibitor concentrations (e.g., HRU6 and HRU7), was analysed. Thrombin time of the plasma was determined by the analyser.
HRU6 and HRU7 also contain anti-thrombin activity provided by the lepirudin and bivalirudin moieties respectively. The Hemoclot thrombin inhibitor assay was used to determine the anti-clotting activity. The normal clotting time range is 15-24 sec.

[5] = target: T2, human Fc gamma receptor IIA (FcγRIIA); assay: cell-based or functional assay
[6] = system: FcγRIIa+/hPF4+ mouse lungs; assay: Platelet accumulation in FcγRIIa+/hPF4+ mouse lungs (FIG. 8); assay type: in vivo
From the text: FIG. 8 is a graph of radiant efficiency showing the level of platelet accumulation in FcγRIIa+/hPF4+ mouse lungs.

| Molecule | Inhibition of platelet aggregation of HIT-antibody (human platelets [1]; serum from a HIT patient) | Kd [2] | Kd (human platelets [3]) | inhibition of thrombus accumulation in lungs [4] | inhibition of HIT serum induced aggregation (human platelets [1]) | EC50 (human platelets [1]) | 14C-serotonin release (platelets) | other results |
| --- | --- | --- | --- | --- | --- | --- | --- | --- |
| WAWVWLTETAV [FcγRIIA binding peptide, reference compound] | 100 µM |  |  |  |  |  |  | IC50 (human platelets [1]): 55 µM; capacity to inhibit HIT serum-induced aggregation (human platelets [1]; peptide alone, FIG. 10): low; IC50 of peptide versus EC50 of the parental scFv (human platelets [1]; printed as '3,000 times lower'): 3,000 times; Kd (FcγRIIA): 0.5 µM |
| HRU5 (scFv, AF488 (fluorescent) label in the flow cytometry binding assays; site not stated, also called HRU5 scFv; Peptide in the linker) scFv: EVQLVESGPELKKPGETVKISCKASGYTFTNYGMNWVKQAPGKGLKWMGWLNTYTGESIYPDDFKGRFAFSLETSASTAYLQINNLKSEDTATYFCARGDYGYDDPLDYWGQGTSVTVSSGGGGWAWVWLTETAVGGGGSDIVMTQAPPSVPVTPGESVSISCRSSKSLLHTNGNTYLHWFLQKPGQSPRLLIYRMSVLASGVPDRFSGSGSGTDFTLKISRVEAEDVGVYYCMQHLEYPLTFGAGTKLEIKRAHHHHHH |  | 0.282 µM |  |  |  |  |  |  |
| HRU5: Humanized variable heavy and variable light chains derived from the IV.3 MoAb linked with a GGGGWAWVWLTETAVGGGGS linker (protein) scFv: EVQLVESGPELKKPGETVKISCKASGYTFTNYGMNWVKQAPGKGLKWMGWLNTYTGESIYPDDFKGRFAFSLETSASTAYLQINNLKSEDTATYFCARGDYGYDDPLDYWGQGTSVTVSSGGGGWAWVWLTETAVGGGGSDIVMTQAPPSVPVTPGESVSISCRSSKSLLHTNGNTYLHWFLQKPGQSPRLLIYRMSVLASGVPDRFSGSGSGTDFTLKISRVEAEDVGVYYCMQHLEYPLTFGAGTKLEIKRAHHHHHH | ~3.5 mg/mL |  | 0.298 µM | inhibition of thrombus accumulation; also recorded: Clot inhibition was much greater in mice treated with HRU5 than with parental scFv | completely inhibited | 0.0088 µM | inhibited | binding to human platelets (human platelets [3]; labelled scFvs, flow cytometry, in words): strong binding to platelets; activity relative to the parental scFv (EC50 and IC50) (human platelets [1]; HIT serum-induced platelet aggregation, in words): increase in activity; Inhibition of platelet aggregation of HIT-antibody (human platelets [1]; converted from mg/ml): ~0.09386 µM; thrombin clotting time (thrombin): did not influence clotting time; also recorded: does not prolong clotting time |
| Humanized scFv (parental scFv) derived from the IV.3 monoclonal antibody (scFv, AF488 (fluorescent) label in the flow cytometry binding assays; site not stated, Arranged VH-linker-VL; also called HRU4) scFv: EVQLVESGPELKKPGETVKISCKASGYTFTNYGMNWVKQAPGKGLKWMGWLNTYTGESIYPDDFKGRFAFSLETSASTAYLQINNLKSEDTATYFCARGDYGYDDPLDYWGQGTSVTVSSGGGGSGGGGSGGGGSDIVMTQAPPSVPVTPGESVSISCRSSKSLLHTNGNTYLHWFLQKPGQSPRLLIYRMSVLASGVPDRFSGSGSGTDFTLKISRVEAEDVGVYYCMQHLEYPLTFGAGTKLEIKRAHHHHHH |  | 0.298 µM |  |  |  |  |  | EC50 (platelet aggregation induced by HIT serum) [5]: 0.018 µM |
| parental scFv: Humanized scFv derived from anti-FcγRIIA IV.3 monoclonal antibody, VH and VL joined by flexible GGGGS linker (protein) scFv: EVQLVESGPELKKPGETVKISCKASGYTFTNYGMNWVKQAPGKGLKWMGWLNTYTGESIYPDDFKGRFAFSLETSASTAYLQINNLKSEDTATYFCARGDYGYDDPLDYWGQGTSVTVSSGGGGSGGGGSGGGGSDIVMTQAPPSVPVTPGESVSISCRSSKSLLHTNGNTYLHWFLQKPGQSPRLLIYRMSVLASGVPDRFSGSGSGTDFTLKISRVEAEDVGVYYCMQHLEYPLTFGAGTKLEIKRAHHHHHH |  |  | 0.282 µM | inhibition of thrombus accumulation | completely inhibited | 55 µM | inhibited | inhibition of thrombosis (platelet accumulation in lungs, radiant efficiency) [6]: strong inhibition of thrombosis |

Reference: US20230414779A1, “ANTIGEN-BINDING FRAGMENTS AND USES THEREOF” (NewSouth Innovations Pty Limited, priority 2020, published 2023)
